Reference: patent publication US20120164123

Assays:
[1] = tested on: human neutrophil peptide-1 (HNP-1)
[2] = tested on: mono-ADP-ribosylated HNP-1
Chain of mono-ADP-ribosylated HNP-1 (chain, as listed by the source): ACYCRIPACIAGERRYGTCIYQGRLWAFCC

Chain of human neutrophil peptide-1 (HNP-1) (chain, as listed by the source): as above

manganese-activated arginase
ornithine formation by arginase (amino acid analysis and MS) [1]: Identification of the products by amino acid analysis and MS identified ornithine only in the reaction that contained free arginine | ornithine formation by arginase (amino acid analysis and MS) [2]: Identification of the products by amino acid analysis and MS identified ornithine only in the reaction that contained free arginine
